Test results published in article PMC12671567 (Cancer research, 2026).

The binders below were run against recombinant human Siglec-10 protein (Siglec-10 antigen coated in ELISA) (Homo sapiens (Human)., UniProt Q96LC7) (assay: not given).
recombinant human Siglec-10 protein (Siglec-10 antigen coated in ELISA), sequence (Q96LC7 17-550): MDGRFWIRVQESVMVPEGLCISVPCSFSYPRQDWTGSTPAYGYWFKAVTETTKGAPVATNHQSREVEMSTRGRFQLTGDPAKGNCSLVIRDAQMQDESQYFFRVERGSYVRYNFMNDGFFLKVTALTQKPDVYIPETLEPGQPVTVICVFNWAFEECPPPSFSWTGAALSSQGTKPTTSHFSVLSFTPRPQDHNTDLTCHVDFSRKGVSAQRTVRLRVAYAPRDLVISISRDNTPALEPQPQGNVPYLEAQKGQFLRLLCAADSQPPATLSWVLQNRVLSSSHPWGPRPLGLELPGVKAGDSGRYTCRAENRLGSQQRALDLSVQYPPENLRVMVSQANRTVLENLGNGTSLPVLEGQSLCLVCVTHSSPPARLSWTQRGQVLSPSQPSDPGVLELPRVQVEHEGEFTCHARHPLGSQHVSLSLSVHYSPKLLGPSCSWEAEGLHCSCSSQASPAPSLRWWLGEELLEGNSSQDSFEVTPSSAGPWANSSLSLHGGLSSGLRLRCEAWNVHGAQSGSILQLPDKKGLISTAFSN

| Binder | binding result |
| --- | --- |
| 22F1A9 (antibody, V domains shown) VH: EVQLVESGGGLVKPGGSLKLSCAASGFTFSSYAMSWVRQTPEKRLEWVATISDGGSYTYYPDNVKGRFTISRDNTKNNLYLQMSHLKSEDTAMFYCARDLSPLYYRGPMDYWGQGTSVTVSS VL: DIQMTQSPASLSASLGERVSLTCRASQDIGSSLNWLQQEPDGTIKRLIYATSSLDSGVPKRFSGSRSGSDYSLTISSLESEDFVDYYCLQYASSPFTFGSGTKLEIK | binds |
| 35B3F9 (antibody, V domains shown) VH: EVKLVESGGGLVQPGGSLRLSCAASGFTFTDYYMSWVRQPPGKALEWLGFIRNKVSGYTTDNSASVKGRFTISRDDSQSIVYLQMNDLRAEDSATYYCARYVSLWLLGYFDVWGTGTTVTVSS VL: DVQITQSPSYLAASPGETITINCRASKSISKYLAWYQEKPGKTNKLLIYSGSTLQSGIPSRFSGSGSGTDFTLTISSLEPEDFAMYYCQQHNEYPLTFGTGTKLELK | binds |
| 68B1E2 (antibody, V domains shown) VH: EVKLVESGGGLVQPGGSLSLSCAASGFTFTDYYMSWVRQPPGKALEWLGFIRNKASGYTTEYNASVKGRFTISRDNSQNILYLQMNALRAEDGATYYCVRYISLWLLGYFDVWGTGTTVTVSS VL: DVQITQSPSYLAASPGETITINCRASKSISKYLAWYQEKPGKTNKLLIYSGSTLQSGIPSRFSGSGSGTDFTLTISSLEPEDFAMYYCQQHNDYPLTFGAGTKLELK | binds |
| 38D6A8 (antibody, V domains shown) VH: EVKLVESGGGLVQPGGSLSLSCAASGFTFTDYYMSWVRQPPGKALEWLGFIRNKASGYTTEYSASVKGRFTISRDNSQNILYLQMNALRAEDGATYYCVRYISLWLLGYFDVWGTGTTVTVSS VL: DVQITQSPSYLAASPGETITINCRASKSISKYLAWYQEKPGKTNKLLIYSGSTLQSGIPSRFSGSGSGTDFTLTISSLEPEDFAMYYCQQHNDYPLTFGAGTKLELK | binds |
| 54C2F11 (antibody, V domains shown) VH: EVRLVESGGGLVQPGGSLRLSCAASGFTFTDYYMSWVRQPPGKALEWLGFIRNKPSGYTTEYSASVKGRFTISRDNSQSILYLQMNALRAEDSATYYCARYISLWLLGYLDVWGTGTTVTVSS VL: DVQITQSPSYLAASPGETIIINCRTSKSISKYLAWYQEKPGKTNKLLIYSGSTLQSGIPSRFSGSGSGTDFTLTISSLEPEDFAMYYCQQHNEYPLTFGAGTKLELN | binds |
| 73D4G2 (antibody, V domains shown) VH: EVRLVESGGGLVQPGGSLRLSCAASGFTFTDYYMSWVRQPPGKALEWLGFIRNKPSGYTTEYSASVKGRFTISRDNSQSILYLQMNALRAEDSATYYCARYISLWLLGYLDVWGTGTTVTVSS VL: DVQITQSPSYLAASPGETIIINCRTSKSISKYLAWYQEKPGKTNKLLIYSGSTLQSGIPSRFSGSGSGTDFTLTISSLEPEDFAMYYCQQHNEYPLTFGAGTKLELK | binds |
| 48D6F4 (antibody, V domains shown) VH: EVRLVESGGGLVQPGGSLRLSCAASGFTFTDYYMSWVRQPPGKALEWLGFIRNKPSGYTTEYSASVKGRFTFSRDNSQSILYLQMNALRAEDSATYYCARYISLWLLGYLDVWGTGTTVTVSS VL: DVQITQSPSYLAASPGETIIINCRTSKSISKYLAWYQEKPGKTNNLLIYSGSTLQSGIPSRFSGSGSGTDFSLTISSLEPEDFAIYYCQQHNEYPLTFGAGTKLELN | binds |
| 38B2G5 (antibody, V domains shown) VH: QVQLQQSGAEVAKPGASVKLSCKASGYTFTSYWMHWVKQRPGQGLEWIGYINPSNNYTKYNQKFNDKATLTADKSSSTAYMQLSSLTYEDSALYYCARVYYYGNSPAWFAYWGQGTLVTVSA VL: QIVLSQSPAILSASPGEKVTMTCRASSSVSYMHWYQQKPGSSPKPWIYATSNLASGVPARFSGSGSGTSYSLTISRVEAEDAATYYCQQWTSNPPTFGGGTKLEIK | binds |
| 31E6H8 (antibody, V domains shown) VH: EVKLVESGGGLVQPGGSLSLSCAASGFTFTDYYMTWVRQPPGKALEWLGFIRNKANGYTTEYSASVKGRFTISRDNSQSILSLQMNALSAEDSATYYCASLVLRGFAYWGQGTLVTVSA VL: not shown | binds |

Continued, values first:

| binding result | Binder |
| --- | --- |
| binds | 56C3E6 (antibody, V domains shown) VH: EVNLVESGGGLVQPGDSLSLSCATSGFTFTDYYMSWVRQPPGKALEWLGFIRNKANGYTTEYSASVKGRFTISRDNSQSILYLQMNALRPEDSATYYCASPVLRGFAYWGRGTLVTVSA VL: DIQMTQSPASLSASVGETVTITCRASGNIHNYLAWYQQKQGKSPQLLVYNAKTLADGVPSRFSGSGSGTQYSLKINSLQPEDFGSYYCQHFWSTPFTFGSGTKLEIK |
| binds | 36F7B3 (antibody, V domains shown) VH: EVKLVESGGGLVQPGGSLSLSCAASGFTFTDYYMTWVRQPPGKALEWLCFIRNKANGYTTEYSASVKGRFTISRDNSQSILYLQVNALRAEDSATYYCATYVLRGLAYWGQGTLVTVSA VL: not shown |
| binds | 66E8F8 (antibody, V domains shown) VH: EVKLVESGGGLVQPGGSLSLSCAASGFTFTDYYMSWVRQPPGKALEWLCFIRNKANGYTTEYSASVKGRFTISRDNSQSILYLQVNALRAEDSATYYCATYVLRGLAYWGQGTLVTVSA VL: not shown |
| binds | 35G6G1 (antibody, V domains shown) VH: EVKLVESGGGLVQPGGSLSLSCAASGFTFADYYMTWVRQPPGKALEWLGFIRNKANGFTTEYSASVKGRFTISRDNSQSILYLQMNALRAEDSATYYCARYGLRGFAYWGQGTLVTVSA VL: DIVMTQSPSSLAMSVGQKVTLNCKSSQSLLNSSNQKNYLAWYQQKPGQSPKLLVYFASTRESGVPDRFIGSGSGTDFTLTISSVQAEDLADYFCHQHYSTPFTFGSGTKLEMK |

The binders below were run against Siglec-5 antigen (recombinant Siglec-5 protein coated in ELISA) (Homo sapiens (assumed), UniProt O15389) (assay: ELISA).
Siglec-5 antigen (recombinant Siglec-5 protein coated in ELISA), sequence (O15389 17-551): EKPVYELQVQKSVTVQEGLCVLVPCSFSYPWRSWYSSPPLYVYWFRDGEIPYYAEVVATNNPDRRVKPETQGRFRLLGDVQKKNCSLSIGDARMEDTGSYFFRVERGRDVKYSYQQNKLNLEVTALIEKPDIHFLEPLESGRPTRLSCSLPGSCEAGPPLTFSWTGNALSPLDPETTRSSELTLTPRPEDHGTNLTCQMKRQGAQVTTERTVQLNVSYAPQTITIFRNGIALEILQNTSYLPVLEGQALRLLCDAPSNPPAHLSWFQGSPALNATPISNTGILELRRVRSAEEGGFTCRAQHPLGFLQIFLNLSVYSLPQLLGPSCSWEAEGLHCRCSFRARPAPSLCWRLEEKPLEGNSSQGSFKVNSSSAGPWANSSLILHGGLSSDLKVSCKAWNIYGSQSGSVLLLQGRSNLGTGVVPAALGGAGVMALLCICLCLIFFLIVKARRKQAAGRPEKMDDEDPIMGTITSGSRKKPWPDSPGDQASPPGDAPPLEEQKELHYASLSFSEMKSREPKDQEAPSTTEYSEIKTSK

| binding result | Binder |
| --- | --- |
| no binding | recombinant 68A11A1 antibody (IgG1 isotype), anti-Siglec-10 monoclonal antibody (antibody, V domains shown) VH: EVKLVESGGGLVQPGGSLSLSCAASGFTFTDYYMSWVRQPPGKALEWLGFIRNKVSGYTTDYSSSVKGRFTFSRDNSQSIVYLHMNALRAEDSATYYCTRYVSLWLLGYFDVWGTGTTVTVSS VL: DVQLTQSPSYLAASPGETITINCRTSKSISKYLAWYQEKPGKTNKLLIYSGSTLQSGIPSRFSGSGSGTDFTLTISSLEPEDFAMYYCQQHNEYPLTFGAGTKLELK |
